For assay [1], the target named is T1, active BoNT/G holotoxin (Clostridium botulinum, UniProt Q60393 2-1297).
T1 sequence: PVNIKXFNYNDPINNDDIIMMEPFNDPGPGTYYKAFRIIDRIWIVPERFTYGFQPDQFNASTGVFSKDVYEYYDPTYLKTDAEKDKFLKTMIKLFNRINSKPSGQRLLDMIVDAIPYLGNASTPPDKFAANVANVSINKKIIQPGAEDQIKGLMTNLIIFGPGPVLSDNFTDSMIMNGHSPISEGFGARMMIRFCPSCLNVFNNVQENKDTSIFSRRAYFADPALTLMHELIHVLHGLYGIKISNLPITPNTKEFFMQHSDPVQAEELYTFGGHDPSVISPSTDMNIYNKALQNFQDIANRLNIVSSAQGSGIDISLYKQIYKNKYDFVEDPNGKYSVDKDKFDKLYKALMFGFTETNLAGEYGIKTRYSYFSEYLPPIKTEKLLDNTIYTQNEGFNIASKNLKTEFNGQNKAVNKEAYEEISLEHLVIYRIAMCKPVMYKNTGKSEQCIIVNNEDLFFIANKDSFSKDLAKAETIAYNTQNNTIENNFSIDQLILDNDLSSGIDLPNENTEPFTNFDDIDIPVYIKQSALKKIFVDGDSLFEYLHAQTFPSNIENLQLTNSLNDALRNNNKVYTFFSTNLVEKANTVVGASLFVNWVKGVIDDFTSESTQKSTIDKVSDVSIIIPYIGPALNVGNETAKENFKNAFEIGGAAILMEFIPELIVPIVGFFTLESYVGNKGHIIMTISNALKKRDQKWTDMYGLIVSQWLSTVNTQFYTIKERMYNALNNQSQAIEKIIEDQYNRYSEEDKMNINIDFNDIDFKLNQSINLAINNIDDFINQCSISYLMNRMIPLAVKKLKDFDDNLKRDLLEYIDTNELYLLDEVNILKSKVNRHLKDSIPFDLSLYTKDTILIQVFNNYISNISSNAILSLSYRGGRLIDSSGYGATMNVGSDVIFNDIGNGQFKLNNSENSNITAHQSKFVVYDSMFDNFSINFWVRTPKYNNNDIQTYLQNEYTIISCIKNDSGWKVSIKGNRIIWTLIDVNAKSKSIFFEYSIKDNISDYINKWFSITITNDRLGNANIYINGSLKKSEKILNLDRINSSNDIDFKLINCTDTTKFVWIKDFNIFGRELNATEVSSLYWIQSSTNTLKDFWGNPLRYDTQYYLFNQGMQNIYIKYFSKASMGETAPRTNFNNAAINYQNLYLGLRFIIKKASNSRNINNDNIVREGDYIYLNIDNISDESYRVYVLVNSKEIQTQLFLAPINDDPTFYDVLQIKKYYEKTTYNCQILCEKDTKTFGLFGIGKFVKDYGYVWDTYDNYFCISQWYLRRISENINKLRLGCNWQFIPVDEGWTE
The experiment in a line: KinExA, IgG. A general note: A kinetic exclusion assay measures how much of one partner remains free in solution.

Assay [2] deals with T1, active BoNT/G holotoxin. As to the kind of experiment: KinExA, IgG. The source holds these as a separate data set.
Assay [3] has as its target inactive BoNT/G (BoNT/Gi) (Clostridium botulinum) (UniProt Q60393). As to the kind of experiment: FACS, scFv on yeast. On the technique in general: A flow cytometer gives signals particle by particle.
The target is the same in assay [4]. As to the kind of experiment: scFv on yeast surface.
Assay [5] has the same target. As to the kind of experiment: flow cytometry, scFv on yeast.
For assay [6] the target is unchanged. The experiment in a line: flow cytometry, scFv on yeast surface.
Assay [7] has the same target. As to the kind of experiment: titration on yeast-displayed scFv, flow cytometry, fit y = m1 + m2*M0/(m0+m3).
Assay [8] has as its target T2, inactive BoNT/G (BoNT/Gi) (Clostridium botulinum, UniProt Q60393 1-1297).
T2 sequence: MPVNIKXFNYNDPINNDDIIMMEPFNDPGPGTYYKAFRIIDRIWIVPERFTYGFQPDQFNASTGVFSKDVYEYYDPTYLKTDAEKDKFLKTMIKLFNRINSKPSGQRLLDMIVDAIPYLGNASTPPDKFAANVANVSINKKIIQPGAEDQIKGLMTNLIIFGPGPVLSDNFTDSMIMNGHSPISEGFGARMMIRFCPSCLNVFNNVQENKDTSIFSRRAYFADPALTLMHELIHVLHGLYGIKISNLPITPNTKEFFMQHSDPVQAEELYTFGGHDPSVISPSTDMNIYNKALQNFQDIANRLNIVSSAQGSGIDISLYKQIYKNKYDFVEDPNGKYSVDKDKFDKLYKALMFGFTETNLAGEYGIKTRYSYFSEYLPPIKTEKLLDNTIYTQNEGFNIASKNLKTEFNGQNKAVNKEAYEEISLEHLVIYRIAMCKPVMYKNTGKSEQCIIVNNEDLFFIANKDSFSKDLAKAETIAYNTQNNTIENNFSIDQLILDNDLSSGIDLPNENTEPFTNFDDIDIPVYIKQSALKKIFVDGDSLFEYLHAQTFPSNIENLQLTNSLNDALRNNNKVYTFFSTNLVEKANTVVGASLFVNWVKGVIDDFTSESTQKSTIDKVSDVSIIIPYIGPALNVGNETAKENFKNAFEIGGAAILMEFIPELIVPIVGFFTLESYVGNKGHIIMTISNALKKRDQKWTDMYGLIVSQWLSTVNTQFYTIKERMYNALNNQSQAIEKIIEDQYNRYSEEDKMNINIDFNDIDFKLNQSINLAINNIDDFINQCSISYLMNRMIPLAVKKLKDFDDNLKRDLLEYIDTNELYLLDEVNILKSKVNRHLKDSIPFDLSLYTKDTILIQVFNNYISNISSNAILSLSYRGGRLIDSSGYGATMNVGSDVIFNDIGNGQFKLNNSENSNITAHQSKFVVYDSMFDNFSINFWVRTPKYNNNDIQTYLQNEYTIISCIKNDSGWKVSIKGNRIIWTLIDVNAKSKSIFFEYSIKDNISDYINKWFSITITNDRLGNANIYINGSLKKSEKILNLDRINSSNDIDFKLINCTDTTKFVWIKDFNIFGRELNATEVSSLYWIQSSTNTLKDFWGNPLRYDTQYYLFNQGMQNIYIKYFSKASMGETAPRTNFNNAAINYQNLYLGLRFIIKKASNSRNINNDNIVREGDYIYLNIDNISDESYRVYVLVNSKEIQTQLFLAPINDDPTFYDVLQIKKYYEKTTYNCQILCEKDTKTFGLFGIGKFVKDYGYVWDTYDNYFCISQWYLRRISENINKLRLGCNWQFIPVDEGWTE
As to the kind of experiment: FACS, scFv on yeast.

In assay [9] the target is T2, inactive BoNT/G (BoNT/Gi). As to the kind of experiment: titration on yeast-displayed scFv, flow cytometry, fit y = m1 + m2*M0/(m0+m3).

Where two headings read alike, the source gives them in different places.

B1: hu6G6.1 IgG (antibody, V domains shown)
VH: QVQLVQSGAEVKKPGASVKLSCKASGFNIKDTYMHWVRQAPGQGLEWIGRIDPENGNTKYDPKFQGRATITAYKSINTAYLELSRLRSDDTAVYYCASGPNYYGTTWFAYWGQGTTVTVSS
VL: EIVLTQSPSTLSASVGDRVTITCRASHGISNYLAWYQQKPGRAPKLLIYKASTLHIGVPSRFSGSGSGTEFALTISSLQPDDFSTYYCQQYNSYLPHTFGQGTRLEIKR
One may read the Kd as the constant that tells how readily two partners part at equilibrium. Turning to B1, in the assay with active BoNT/G holotoxin [1], the dissociation constant (Kd) is 0.476 nM and the “fold improvement over hu6G6” value was determined as 18 fold. In the assay with active BoNT/G holotoxin [2], this molecule came in with a Kd of 0.47 nM.

B2: hu6G6 scFv (scFv)
scFv: QVQLVQSGAEVKKPGASVKLSCKASGFNIKDTYMHWVRQAPGQGLEWIGRIDPANGNTKYDPKFQGRATITADTSINTAYLELSRLRSDDTAVYYCASGPNYYGTTWFAYWGQGTTVTVSSVDLKSGGSTSGSGKPGSGEGSSGSAREIVLTQSPSTLSASVGDRVTITCRASHGISNYLAWYQQKPGRAPKLLIYKASTLHIGVPSRFSGSGSGTEFALTISSLQPDDFSTYYCQQYNSYLPHTFGQGTRLEIK
B2: the Kd in assay [3] was 23 nM; in assay [4] it was 5 nM; in [5], 23.2 nM. The fold improvement over parental 6G6 in assay [4] was above 3 fold.

B3: hu6G9B10 scFv (scFv)
scFv: QVQLVQSGAEVKKPGASVKMSCKASGYTFTSYWMHWVRQAPGQGLEWIGYINPSTGYTEYNQKFKDRATLTADKSTSTAYMELRSLRSDDTAVYYCARGGNYVDYWGQGTTLTVSSVDLKSGGSTSDSGKPGSGEGSSGSARDIQMTQSPSTLSASVGERVTITCRASQDISSWLAWYQQKPGKAPKRLIYAVSTLQTGVPSRFSGSGSGTDLTLTINSLQPEDFATYYCQDLNSYPLTFGGGTKVEVK
In the case of B3, in [5], the Kd came to 2.35 nM and the fold improvement in affinity over hu6G9 WT came to 9 fold.

B4: Hu6G9.1 scFv (scFv)
scFv: QVQLVQSGAEVKKPGASVKMSCKASGYTFTSYWMHWVRQAPGQGLEWVGYINPSTGYTEYNQKFKDRATLTADKSTSTAYMELRSLRSDDTAVYYCARGGNYVDYWGQGTTLTVSSVDLKSGGSTSGSGKPGSGEGSSGSARDIQMTQSPSTLSASVGERVTITCRASHGISSWLAWYQQKPGKAPKRLIYAVSTLQTGVPSRFSDSGSGTDLTLTINSLQPEDFATYYCQDLNSYPLSFGGGTKVEIK
In assay [3], B4 displayed a Kd of 2.04 nM. Also, the fold improvement in affinity over hu6G9 WT in assay [5] came out at 9 fold. The same molecule yielded a fold improvement over wild type hu6G9 in assay [6] of 9 fold.

B5: Hu6G10 IgG (antibody, V domains shown)
VH: QVQLVQSGAEVKKPGATVKISCKASGYSFTGYFMHWVRQAPGKGLEWIGRINPYNGDIIYNQNFKDRATLTVDKSTSTAYMELSSLRSEDTAVYYCASLFGLYYFDYWGQGTTLTVSS
VL: DVVMTQSPSSVSASVGDRVTITCRASQRISNHLNWYQQKPGKAPKRLIYAASSLESGVPSRFSGSGSGTEFTLTISSLQPEDFATYFCLQHNSYPYTFGQGTKVEIKR
B5: in the assay with active BoNT/G holotoxin [1], the “fold improvement over 6G10 (IgG KD)” value was 39 fold. For the same molecule, in the assay with active BoNT/G holotoxin [2], the Kd is 0.00836 nM.

B6: hu6G7.1A5 (scFv, V domains shown)
VH: QVQLVQSGAEVKKPGASVKVSCKASDYSFTDYNIYWVRQAPGQGLEWIGYIDPYNGGTSYNQKFKGRATLTVDKSISTAYMELSRLRSDDTAVYYCALYGYDPDYIDYWGPGTTLTVSS
VL: DIVLTQSPASMAASPGQRVTITCSASSSVSYLHWFQQKPGQSPKLMIYGTSNLASGVPVRFSGSGSGTSYSLTINPMEAEDTATYYCQQRSSYPYTFGQGTKLEIK
Regarding B6, the Kd in [7] worked out at 4.91 nM.

B7: Hu6G7.1 scFv (scFv, V domains shown)
VH: QVQLVQSGAEVKKPGASVKVSCKASDYSFTDYNIYWVRQTPGQGLEWIGYIDPYNGGTSYNQKFKGRATLTVDKSISTAYMELSRLRSDDTAVYYCALYGYDPDYIDYWGQGTTLTVSS
VL: DIVLTQSPASMAVSPGQRVTITCSASSSVSYLHWFQQKPGQSPKLWIYSTSNLASGVPARFSGSGSGTDYTLTINPMEAEDTATYYCQQRSSYPYTFGQGTKLEIKR
For the molecule B7, the Kd in assay [8] and in [9] was 3.2 nM in each case.

B8: hu6G7.1D6 (scFv, V domains shown)
VH: QVQPVQSGAEVKKPGASVKVSCKASDYSFTDYNIYWVRQAPGQGLEWIGYIDPYNGGTSYNQKYRGRATLTVDKSINTAYMELSRLRSDDTAVYYCALYGYDPDYIEYWGQGTTLTVSS
VL: DIVLTQSPASMAASPGQRVTITCSASSSVSYLHWFQQKPGQSPKLWIYSTSNLASGVPARFSGSGSGTDYTLTINPMEAEDTATYYCQQRSSYPYTFGQGTKLEIK
On to B8, for which, in assay [7], the Kd is 5.03 nM.

B9: 6G9A2 (scFv, V domains shown)
VH: QVQLVQSGAEVKKPGASVKMSCKASGYTFTSYWMHWVRQAPGQGLEWIGYINPSTGYTEYNQKFKDRATLTADKSTSTAYMELRSLRSDDTAVYYCARGGNYVDYWGQGTTLTVSS
VL: DVVMTQSPSFLSASVGDRVTVTCRASQSIGSWLAWYQQKPGKAPKLLIYAASSLQSGVPSRFSASGSGTDFTLTISSLQPDDFATYFCHRLNSYPLTFGGGTKVEIK
With B9, in assay [7], the Kd is 6.2 nM.

B10: 6G9B9 (scFv, V domains shown)
VH: QVQLVQSGAEVKKPGASVKMSCKASGYTFTSYWMHWVRQAPGQGLEWIGYINPSTGYTEYNQKFKDRATLTADKSTSTAYMELRSLRSDDTAVYYCARGGNYVDYWGQGTTLTVSS
VL: DIQMTQSPSTLSASVGERVTITCRASQGISSWLAWYQQKPGKAPKRLIYAVSTLQTGVPSRFSGSGSGTDLTLTINSLQPEDFATYYCQHLNSYPLTFGGGTKVEIK
For B10, in [7], the dissociation constant (Kd) is 3.78 nM.

The values above are taken from patent US20260116958A1 (University of California, published 2026).
